Results: paper PMC7835227 (Scientific Reports, 2021)
Blank lines part the entries; values can stand above or below the binder they belong to.

Legend:
GYM329 = target: T1, GYM329 (human); assay: SPR; Biacore T200, 25 °C, pH 6.0, PB-P+; antibody captured by protein L immobilised on a CM5 chip; FcRn as analyte, two-fold dilutions 15-240 nmol/L (GYM329) or 250-4000 nmol/L (trastuzumab); steady state model; details: both partners purified
T1 construct: light chain of GYM329 (humanized, engineered MST1032); Made a molecule only as the ligand of Fc receptors (FcγRs, FcRn); Captured by protein L in the assays; also called anti-latent myostatin sweeping antibody; source: Chinese hamster ovary cells, stably expressed, purified (protein A)
T1 sequence (heavy, as listed by the source, chain 1 of 2): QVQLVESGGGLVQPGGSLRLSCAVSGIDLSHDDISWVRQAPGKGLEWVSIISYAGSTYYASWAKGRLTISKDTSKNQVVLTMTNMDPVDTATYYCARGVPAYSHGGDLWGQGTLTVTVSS
T1 sequence (light, as listed by the source, chain 2 of 2): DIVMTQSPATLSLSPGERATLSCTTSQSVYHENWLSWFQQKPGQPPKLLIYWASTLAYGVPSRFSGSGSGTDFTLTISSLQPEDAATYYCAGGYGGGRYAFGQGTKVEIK

[1] = target: T2, reference wild type human IgG1 (with trastuzumab Fab) (human); assay: as above; details: both partners purified
T2 construct: heavy variable domain of trastuzumab; wild type human IgG1 heavy constant region; light chain of trastuzumab; Ligand of FcRn here; The supplement says that recombinant antibodies other than GYM329 and GYM-cyFc were expressed transiently in FreeStyle293-F and purified with protein A

Kd (GYM329): 104 nM
B1: cynomolgus monkey FcRn (receptor)
chain 1: AESHLSLLYHLTAVSSPAPGTPAFWVSGWLGPQQYLSYDSLRGQAEPCGAWVWENQVSWYWEKETTDLRIKEKLFLEAFKALGGKGPYTLQGLLGCELSPDNTSVPTAKFALNGEEFMNFDLKQGTWGGDWPEALAISQRWQQQDKAANKELTFLLFSCPHRLREHLERGRGNLEWKEPPSMRLKARPGNPGFSVLTCSAFSFYPPELQLRFLRNGMAAGTGQGDFGPNSDGSFHASSSLTVKSGDEHHYCCIVQHAGLAQPLRVELETPAKSS
chain 2: IQRTPKIQVYSRHPPENGKPNFLNCYVSGFHPSDIEVDLLKNGEKMGKVEHSDLSFSKDWSFYLLYYTEFTPNEKDEYACRVNHVTLSGPRTVKWDRDM
modifications: limits not given; soluble ectodomain taken from the UniProt extracellular feature, with beta-2-microglobulin as obligate subunit by convention

Kd [1]: 1530 nM
B2: cynomolgus monkey FcRn (receptor)
chain 1: B1 chain 1
chain 2: B1 chain 2
